Experimental findings from patent US20220153875A1, “ANTIGEN-BINDING MOLECULE CONTAINING ANTIGEN-BINDING DOMAIN OF WHICH BINDING ACTIVITY TO ANTIGEN IS CHANGED DEPENDING ON MTA, AND LIBRARY FOR OBTAINING SAID ANTIGEN-BINDING DOMAIN” (Chugai Seiyaku Kabushiki Kaisha, priority 2019, published 2022) are described below.

For orientation: Kd means the free concentration of one partner at which half of the binding sites on the other are occupied at equilibrium, for simple one-to-one binding.

Test [1] has as its target T1, hIL-6R (Homo sapiens, UniProt P08887).
T1 sequence (P08887 20-357): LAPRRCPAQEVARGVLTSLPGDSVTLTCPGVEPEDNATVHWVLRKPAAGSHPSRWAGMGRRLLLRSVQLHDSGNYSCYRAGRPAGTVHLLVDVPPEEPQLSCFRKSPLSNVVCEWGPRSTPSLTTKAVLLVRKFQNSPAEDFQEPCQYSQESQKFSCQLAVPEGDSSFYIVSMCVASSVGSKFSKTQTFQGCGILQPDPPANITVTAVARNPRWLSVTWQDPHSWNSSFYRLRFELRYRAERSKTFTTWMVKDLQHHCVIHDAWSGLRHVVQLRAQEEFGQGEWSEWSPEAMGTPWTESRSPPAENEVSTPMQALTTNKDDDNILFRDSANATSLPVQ
In words: Surface plasmon resonance (Biacore T200): C03H-BH076N17/C03L-KT0 binding to hIL-6R under MTA or adenosine. Here is the method:
Using Biacore T200 (GE Healthcare), the effects of MTA and adenosine on the antigen-antibody reaction between C03H-BH076N17/C03L-KT0 and hIL-6R were evaluated. TBS, 0.02% (w/v) Tween20, pH 7.4 was used as the running buffer. ProA/G (Pierce) was immobilized onto Sensor Chip CM5 (GE Healthcare) by amine coupling, and after the antibody was immobilized on it, various antigens were allowed to interact as analytes, to observe changes in the antigen-antibody binding amount. The running buffer and a buffer in which either MTA or adenosine was added to the running buffer were used for antigen dilution, which were prepared in a series of stepwise concentrations. Biacore T200 Evaluation Software (GE Healthcare) was used to calculate the parameters.

Test [2] in a line: Surface plasmon resonance: humanized MTA0303 and humanized MTA0330, binding to adenosine. As to conditions: humanized antibodies; 25° C.; read-out: Affinity KD, Adenosine. The text has this:
(§1) […] (GE Healthcare) was used to analyze binding to MTA and MTA analogs (adenosine, SAH) to verify whether humanized MTA0303 and humanized MTA0330 specifically bind to MTA.
(§2) The antibody of interest was captured on Sensor Chip Protein A (GE healthcare) with protein A pre-immobilized, or on an immobilized surface prepared by binding onto Streptavidin-immobilized Sensor chip SA (GE Healthcare) the Capture Select Biotin Anti-IgG-Fc (Hu) (Thermo fisher scientific), which is a biotinylated anti-human IgG CH1 molecule, and interacted with MTA (Sigma-Aldrich), or adenosine (Wako), or S-(5′-adenosyl)-L-homocysteine, (SAH) (Sigma-Aldrich). 20 mM ACES-NaOH, 150 mM NaCl, 0.05% Tween20, 0.05% DMSO was used as the running buffer. MTA or adenosine or SAH was allowed to interact at a flow rate of 30 μL/min for 120 seconds and then dissociated in the running buffer. The interaction was measured at 25° C. and the same buffer as the running buffer was used to dilute MTA, or adenosine, or SAH.
(§3) The dissociation constant KD (M) was calculated based on the binding rate constant ka (1/Ms) and the dissociation rate constant kd (1/s), which are kinetic parameters calculated from the sensorgrams obtained by the measurement. Alternatively, the dissociation constant KD (M) was calculated using steady state analysis. […] (GE Healthcare) was used to calculate each parameter.
(In general: SPR reads the build-up and loss of mass on a sensor chip optically.)

Test [3] in a line: Surface plasmon resonance: humanized MTA0303 and humanized MTA0330, binding to MTA. To be noted: humanized antibodies; 25° C.; read-out: Affinity KD, MTA.
From the text: as §1, §2, §3

The nature of test [4]: Surface plasmon resonance: humanized MTA0303 and humanized MTA0330, binding to SAH. As to conditions: humanized antibodies; 25° C.; read-out: Affinity KD, SAH.
From the text: as §1, §2, §3

Test [5] in a line: Biacore T200: rabbit B cell cloning antibodies, binding to adenosine. As to conditions: Biacore T200, 25° C.; read-out: Affinity KD, Adenosine. The protocol:
(§4) The antibody of interest was captured on Sensor Chip Protein A (GE healthcare) with protein A pre-immobilized, or on an immobilized surface prepared by binding onto Streptavidin-immobilized Sensor chip SA (GE Healthcare) the Capture Select Biotin Anti-IgG-Fc (Hu) (Thermo fisher scientific), which is a biotinylated anti-human IgG CH1 molecule, and interacted with MTA (Sigma-Aldrich) or MTA analogs. As MTA analogs, adenosine (Wako) (measured concentration in tumor tissue: 182 nM) and S-(5′-adenosyl)-L-homocysteine, (SAH) (Sigma-Aldrich) (measured concentration in tumor tissue: 30 nM) were selected based on the structural similarity to MTA and the concentration in tumor tissue of tumor-bearing mice of an MTAP-deficient cell line. 20 mM ACES-NaOH, 150 mM NaCl, 0.05% Tween20, 0.05% DMSO was used as the running buffer. MTA or adenosine or SAH was allowed to interact at a flow rate of 30 μL/min for 120 seconds and then dissociated in the running buffer. The interaction was measured at 25° C. and the same buffer as the running buffer was used to dilute MTA and its analogs.
(§5) The dissociation constant […]) (M) was calculated based on the binding rate constant ka (1/Ms) and the dissociation rate constant kd (1/s), which are kinetic parameters calculated from the sensorgrams obtained by the measurement. Alternatively, the dissociation constant KD (M) was calculated using steady state analysis. […]

The nature of test [6]: Biacore T200: rabbit B cell cloning antibodies, binding to MTA. To be noted: Biacore T200, 25° C.; read-out: Affinity KD, MTA. The protocol: as §4, §5
Test [7] in a line: Biacore T200: rabbit B cell cloning antibodies, binding to SAH. As to conditions: Biacore T200, 25° C.; read-out: Affinity KD, SAH. Here is the method: as §4, §5
Test [8] concerns the target T1, hIL-6R. In words: Biacore T200: hIL-6R binding amount at different MTA concentrations. As to conditions: MTA 0.1, 1, 10, 100 μM, 25° C. Here is the method:
For the MTA-dependently binding anti-hIL-6R antibody cloned in Example (4-5) (6RS2T007H-F760mnN17/6RS2T007L-KT0), the change in the amount of antigen binding dependent on MTA concentration was assessed using Biacore T200 (GE Healthcare). The measurement was done at 25° C., using 20 mM ACES added with MTA at final concentrations of 0.1, 1, 10, and 100 μM, 150 mM NaCl, 0.05% (w/v) Tween20, pH 7.4 as the running buffer Series S Sensor Chip CM4 was used as the sensor chip, ProA/G was immobilized by amine coupling with the antibody mobilised on the top of that, after which hIL-6R was allowed to interact as an analyte to measure the change in binding amount between antigen-antibody. The running buffer was used to dilute the antigen.

Test [9] can be described thus: Biacore T200: binding of humanized SMB0002 to MTA. To be noted: 37° C.; read-out: Affinity KD, MTA. The protocol:
(§6) CaptureSelect™ Biotin Anti-IgG-CH1 Conjugate (Thermo fisher scientific), which is a biotinylated anti-human IgG CH1 molecule, was bound to Sensor Chip SA (GE Healthcare) onto which streptavidin was immobilized in advance, then humanized SMB0002 was allowed to be captured, and MTA (Sigma-Aldrich) or adenosine (Wako) was allowed to interact with humanized SMB0002. 50 mM Tris-HCl, 150 mM NaCl (Takara, T903), 0.02% (w/v) Tween20, 5% DMSO was used as the running buffer. MTA or adenosine was allowed to interact with humanized SMB0002 for 42 seconds at a flow rate of 100 μL/min and then dissociated from the antibody in the running buffer. The interaction was measured at 37° C., and the same buffer as the running buffer was used to dilute MTA or adenosine.
(§7) The dissociation constant KD (M) was calculated based on the binding rate constant ka (1/Ms) and the dissociation rate constant kd (1/s), which are kinetic parameters calculated from the sensorgrams obtained by the measurement. Alternatively, the dissociation constant KD (M) was calculated using steady state analysis. Biacore T200 Evaluation Software (GE Healthcare) was used to calculate each parameter.

Test [10] is described as follows: Biacore T200: binding of humanized SMB0002 to adenosine. As to conditions: 37° C.; read-out: Affinity KD, Adenosine. Here is the method:
as §6, §7

B1: C03H-BH076N17/C03L-KT0: antibody binding hIL-6R MTA-dependently; heavy chain variable region SEQ ID NO: 54, light chain variable region SEQ ID NO: 55 (antibody, V domains shown)
VH: QVQLVQSGAEVKKPGSSVKVSCKASGGTFSSYAISWVRQAPGQGLEWMGGIIPIFGTANYAQKFQGRVTITADESTSTAYMELSSLRSEDTAVYYCARFHVMSSFEIWGQGTLVTVSS
VL: DIQMTQSPSSLSASVGDRVTITCRASQSISSYLNWYQQKPGKAPKLLIYAASSLQSGVPSRFSGSGSGTDFTLTISSLQPEDFATYYCLQFNNDPLTFGGGTKVEIK
With B1, the “amount of binding to hIL-6R” value in test [1] (different concentrations of MTA) is “showed stronger binding activity to hIL-6R as MTA concentration increased”; in test [1] (different concentrations of adenosine), “no binding to hIL-6R was observed at any concentration”.

B2: HumanizedMTA0330 (antibody, V domains shown)
VH: QVQLVESGGGLVQPGGSLRLSCSASGFTFSSSYWMCWVRQAPGKGLEWVGCIYSGDGSTYYASWVNGRLTISKDTSKSQVVLTMTNMDPVDTATYYCARENIFGSGALNLWGQGTLVTVSS
VL: DIQVTQSPSSLSASVGDRVTITCHSSKSVYSNNRLAWYQQKPGQPPKLLIYQASTLASGVPSRFSGSGSGTEFTLTISSLQPDDFATYYCQGTYYSSGFYFAFGQGTKVEIK
Consider B2, for which the Kd came to 44.8 µM in [2], 0.00888 µM in test [3] and 84.7 µM in test [4].

B3: MTA0330: anti-MTA antibody from rabbit B cell cloning; H-chain variable region SEQ ID NO: 48, L-chain SEQ ID NO: 49 (antibody, V domains shown)
VH: QEQLVESGGDLVTPGASLTLTCKASGFSFSSSYWMCWVRQAPGKGLEWIACIYSGDGSTYYASWVNGRFTISKTSSTTVTLQMTSLTAADTATYFCARENIFGSGALNLWGPGTLVTVSS
VL: QAVVTQTPSPVSAAVGGTVTISCHSSKSVYSNNRLAWYQQKPGQPPKLLIYQASTLASGVASRFSGSGSGTQFTLTISGVQCDDAATYYCQGTYYSSGFYFAFGGGTEVVVK
On to B3, for which the Kd is 63.5 µM in test [5], 0.0144 µM in test [6] and 187 µM in test [7].

B4: MTA0303: anti-MTA antibody from rabbit B cell cloning; H-chain variable region SEQ ID NO: 46, L-chain SEQ ID NO: 47 (antibody, V domains shown)
VH: QSLEESGGDLVKPGASLTLTCTASGFSFSSAYWMCWVRQAPGKGLEWTACIFASAIYAGSGGSTYYASWAKGRFTISKTSSTTVTLQMTSLTAADTATYFCATGYGSSGGGFDELWGPGTLVTVSS
VL: AQVLTQTASSVSAAVGGTVTISCQSSESVYANRLSWYQQKPGQPPKLLIYSASTLPSGVPSRFKGSGSGTQFTLTISDLECDDVGTYYCAGLYSGNIPAFGGGTEVVVK
As to B4, the Kd in test [5] amounted to 11.4 µM; in test [6], 0.00246 µM; in [7], 119 µM.

B5: HumanizedMTA0303 (antibody, V domains shown)
VH: QVQLVESGGGLVKPGGSLRLSCAASGFTFSSAYWMCWVRQAPGKGLEWVACIFASAIYAGSGGSTYYASWAKGRLTISKDTSKNQVVLTMTNMDPVDTATYYCATGYGSSGGGFDELWGQGTLVTVSS
VL: EIVLTQSPATLSLSPGERATLSCQSSESVYANRLSWYQQKPGQPPKLLIYSASTLPSGIPARFSGSGSGTDFTLTISRLEPEDFAVYYCAGLYSGNIPAFGQGTKVEIK
For the molecule B5, the Kd in test [2] is 41.4 µM; in test [3] it was 0.0108 µM; in [4], 211 µM.

B6: 6RS2T007H-F760mnN17/6RS2T007L-KT0: MTA-dependent anti-hIL-6R antibody; H-chain variable region SEQ ID NO: 57, L-chain variable region SEQ ID NO: 58 (antibody, V domains shown)
VH: QVQLVQSGAEVKKPGASVKVSCKVSNIVLMQHTYGWVRQPPGKGLEWIGIIGGDGHAWYPRWVKGRFTISKDNSKNQVVLTMTNMDPVDTATYYCARGGKDGFTNAWDPWGQGTLVTVSS
VL: DIQLTQSPSSLSASVGDRVTITCQSSQSVFNNNGLSWYQQKPGQPPKLLIYDASTLASGVPSRFSGSGSGTDFTLTINSLEAEDAATYYCHGSQATQIWWDNAFGGGTEVVVK
Take B6: in test [8], the “amount of antigen (hIL-6R) binding” value is given as “changes stepwise according to the MTA concentration”.

B7: Humanized SMB0002: adenosine-binding antibody, library template; heavy chain variable region SEQ ID NO: 31, light chain variable region SEQ ID NO: 32 (antibody, V domains shown)
VH: QVQLVQSGAEVKKPGASVKVSCKVSGIDLTNYAMGWVRQPPGKGLEWIGIIGADSSTWYPSWVKGRFTISKDTSKNQVVLTMTNMDPVDTATYYCARGRFVGYTNAFDPWGQGTLVTVSS
VL: DIQLTQSPSSLSASVGDRVTITCQSSQSVWNNNYLSWYQQKPGQPPKLLIYDASTLASGVPSRFSGSGSGTDFTLTINSLEAEDAATYYCHGSYANSGWYDNAFGGGTEVVVK
For B7, the results for the Kd in [9] and in [10] were 3.8 µM and 0.064 µM, respectively.
